B1: CAMK2B (parent)
chain: YQQIKAGAYDFPSPEWDTVTPEAK

Variants of: B1
Assay: protein stability index of a GFP-peptide fusion (GPS, HEK-293T) (PSI 1-6); higher = more stable
Settings: c terminus: a fixed tail appended
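Also: lentivirally expressed fusions sorted by FACS into six bins by GFP to DsRed ratio, PSI derived from sequencing read proportions per bin multiplied by bin number.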

In order of falling protein stability index:
1. YQQIKAGAYDFPSPEWDTVTPEDK [A23D]  4.36
2. YQQIKAGAYDFPSPEWDTVTPEAE [K24E]  4.21
3. YQQIKAGAYDFPSPEWDTVTPEAD [K24D]  4.11
4. YQQIKAGAYDFPSPEWDTVTPEAN [K24N]  4.11
5. YQQIKAGAYDFPSPEWDTVTPEQK [A23Q]  4.06
6. YQQIKAGAYDFPSPEWDTVTPEEK [A23E]  4.05
7. YQQIKAGAYDFPSPEWDTVTPENK [A23N]  3.97
8. YQQIKAGAYDFPSPEWDTVTPEGK [A23G]  3.94
9. YQQIKAGAYDFPSPEWDTVTPEAG [K24G]  3.93
10. YQQIKAGAYDFPSPEWDTVTPEAS [K24S]  3.93
11. YQQIKAGAYDFPSPEWDTVTPEHK [A23H]  3.92
12. YQQIKAGAYDFPSPEWDTVTPESK [A23S]  3.86
13. YQQIKAGAYDFPSPEWDTVTPEKK [A23K]  3.82
14. YQQIKAGAYDFPSPEWDTVTPEAQ [K24Q]  3.81
15. YQQIKAGAYDFPSPEWDTVTPEAA [K24A]  3.78
16. YQQIKAGAYDFPSPEWDTVTPETK [A23T]  3.74
17. YQQIKAGAYDFPSPEWDTVTPERK [A23R]  3.69
18. YQQIKAGAYDFPSPEWDTVTPEAH [K24H]  3.6
19. YQQIKAGAYDFPSPEWDTVTPEAI [K24I]  3.59
20. YQQIKAGAYDFPSPEWDTVTPEAV [K24V]  3.55
21. YQQIKAGAYDFPSPEWDTVTPEPK [A23P]  3.48
22. YQQIKAGAYDFPSPEWDTVTPEAT [K24T]  3.47
23. YQQIKAGAYDFPSPEWDTVTPEYK [A23Y]  3.43
24. YQQIKAGAYDFPSPEWDTVTPEAR [K24R]  3.43
25. YQQIKAGAYDFPSPEWDTVTPEAC [K24C]  3.38
26. YQQIKAGAYDFPSPEWDTVTPEAP [K24P]  3.37
27. YQQIKAGAYDFPSPEWDTVTPEFK [A23F]  3.28
28. YQQIKAGAYDFPSPEWDTVTPEIK [A23I]  3.28
29. YQQIKAGAYDFPSPEWDTVTPEMK [A23M]  3.28
30. YQQIKAGAYDFPSPEWDTVTPEVK [A23V]  3.27
31. YQQIKAGAYDFPSPEWDTVTPEAM [K24M]  3.27
32. YQQIKAGAYDFPSPEWDTVTPEWK [A23W]  3.25
33. YQQIKAGAYDFPSPEWDTVTPEAL [K24L]  3.1
34. YQQIKAGAYDFPSPEWDTVTPEAY [K24Y]  3.04
35. YQQIKAGAYDFPSPEWDTVTPECK [A23C]  2.98
36. YQQIKAGAYDFPSPEWDTVTPELK [A23L]  2.81
37. YQQIKAGAYDFPSPEWDTVTPEAF [K24F]  2.71
38. YQQIKAGAYDFPSPEWDTVTPEAW [K24W]  2.63

Reference: the supplement of paper PMC10567573
